Legend:
HLA-A*24:02 = test: IEDB peptide-MHC binding, purified MHC/competitive/fluorescence; ≥ and ≤ were set here for values at or beyond the usual limits of such assays
HLA-A*01:01 [1] = test: as above
HLA-A*11:01 = test: as above
HLA-A*02:11 = test: IEDB peptide-MHC binding, purified MHC/direct/fluorescence; filed as Kd, often an IC50 or EC50 that approximates it; ≥ and ≤ were set here for values at or beyond the usual limits of such assays; conditions: source organism: Zaire ebolavirus
HLA-A*02:19 = test: as above; conditions: source organism: Zaire ebolavirus
HLA-A*23:01 = test: as above; conditions: source organism: Zaire ebolavirus
HLA-A*01:01 [2] = test: as above; conditions: source organism: Zaire ebolavirus
HLA-A*24:03 = test: as above; conditions: source organism: Zaire ebolavirus
HLA-A*02:16 = test: as above; conditions: source organism: Zaire ebolavirus
HLA-A*68:02 = test: as above; conditions: source organism: Zaire ebolavirus
HLA-A*02:03 = test: as above; conditions: source organism: Zaire ebolavirus
HLA-A*02:12 = test: as above; conditions: source organism: Zaire ebolavirus
HLA-A*03:01 [3] = test: as above; conditions: source organism: Zaire ebolavirus
HLA-B*27:03 = test: IEDB peptide-MHC binding, purified MHC/competitive/fluorescence; filed as Kd, often an IC50 or EC50 that approximates it; ≥ and ≤ were set here for values at or beyond the usual limits of such assays; conditions: source organism: Zaire ebolavirus
HLA-A*02:01 [4] = test: as above; conditions: source organism: Zaire ebolavirus
HLA-B*46:01 = test: as above; conditions: source organism: Zaire ebolavirus
HLA-A*26:01 = test: as above; conditions: source organism: Zaire ebolavirus
HLA-A*69:01 = test: as above; conditions: source organism: Zaire ebolavirus
HLA-B*51:01 [5] = test: as above; conditions: source organism: Zaire ebolavirus
HLA-B*39:01 = test: as above; conditions: source organism: Zaire ebolavirus
HLA-B*57:01 = test: as above; conditions: source organism: Zaire ebolavirus
HLA-B*07:02 = test: IEDB peptide-MHC binding, purified MHC/competitive/fluorescence; ≥ and ≤ were set here for values at or beyond the usual limits of such assays; conditions: source organism: Zaire ebolavirus
HLA-A*03:01 [6] = test: as above
HLA-A*02:01 [7] = test: as above
HLA-B*08:01 = test: as above
HLA-B*15:01 [8] = test: as above
HLA-B*51:01 [9] = test: IEDB peptide-MHC binding, purified MHC/direct/fluorescence; filed as Kd, often an IC50 or EC50 that approximates it; ≥ and ≤ were set here for values at or beyond the usual limits of such assays
HLA-B*27:05 = test: as above; conditions: source organism: Zaire ebolavirus
HLA-A*29:02 = test: as above; conditions: source organism: Zaire ebolavirus
HLA-B*15:01 [10] = test: as above; conditions: source organism: Zaire ebolavirus
HLA-B*58:01 = test: as above; conditions: source organism: Zaire ebolavirus
HLA-B*53:01 = test: IEDB peptide-MHC binding, purified MHC/competitive/radioactivity; filed as Kd, often an IC50 or EC50 that approximates it; ≥ and ≤ were set here for values at or beyond the usual limits of such assays; conditions: source organism: Dengue virus 4 Philippines/H241/1956
HLA-B*35:01 = test: as above; conditions: source organism: Dengue virus 4 Philippines/H241/1956
[11] = source organism: Zaire ebolavirus
[12] = source organism: Sudan ebolavirus
[13] = source organism: Vaccinia virus
[14] = source organism: Vaccinia virus Copenhagen

ESDMDYHKI
IC50 (HLA-A*24:02; [11]): ≥ 111 µM
IC50 (HLA-A*01:01 [1]; [11]): ≥ 118 µM

GTGPCPGDY
IC50 (HLA-A*11:01; [12]): ≥ 114 µM
IC50 (HLA-A*01:01 [1]; [12]): 10.8 µM

TTEANAGQF
IC50 (HLA-A*24:02; [11]): 22 µM
IC50 (HLA-A*01:01 [1]; [11]): ≥ 109 µM
Kd (HLA-A*02:11): ≥ 20 µM
Kd (HLA-A*02:19): ≥ 20 µM
Kd (HLA-A*23:01): ≥ 20 µM
Kd (HLA-A*01:01 [2]): ≥ 20 µM
Kd (HLA-A*24:03): ≥ 20 µM
Kd (HLA-A*02:16): ≥ 20 µM
Kd (HLA-A*68:02): ≥ 20 µM
Kd (HLA-A*02:03): ≥ 20 µM
Kd (HLA-A*02:12): ≥ 20 µM
Kd (HLA-A*03:01 [3]): ≥ 20 µM
Kd (HLA-B*27:03): ≥ 20 µM
Kd (HLA-A*02:01 [4]): ≥ 20 µM
Kd (HLA-B*46:01): ≥ 20 µM
Kd (HLA-A*26:01): ≥ 20 µM
Kd (HLA-A*69:01): ≥ 20 µM
Kd (HLA-B*51:01 [5]): ≥ 20 µM
Kd (HLA-B*39:01): ≥ 20 µM
Kd (HLA-B*57:01): ≥ 20 µM

KPVPNRSTK
IC50 (HLA-A*11:01; [11]): ≥ 115 µM
IC50 (HLA-B*07:02): 30.9 µM
IC50 (HLA-A*03:01 [6]; [11]): ≥ 166 µM

HKNKFMAIL
IC50 (HLA-A*02:01 [7]; [11]): ≥ 782 µM
IC50 (HLA-B*08:01; [11]): 42.7 µM
IC50 (HLA-B*15:01 [8]; [11]): ≥ 443 µM
IC50 (HLA-A*24:02; [11]): 50.9 µM

LFLESGAVK
IC50 (HLA-A*11:01; [11]): 68.8 µM
IC50 (HLA-A*24:02; [11]): 15.2 µM
IC50 (HLA-A*03:01 [6]; [11]): ≥ 192 µM

SPSKLASAI
Kd (HLA-B*51:01 [9]; source organism: Dengue virus): ≥ 20 µM

TENTSSYYA
IC50 (HLA-A*01:01 [1]; [12]): ≥ 142 µM

KLLLWFNYL
IC50 (HLA-A*11:01; source organism: Variola virus): ≥ 140 µM
IC50 (HLA-A*03:01 [6]; source organism: Variola virus): ≥ 699 µM

QQYAESREL
IC50 (HLA-A*02:01 [7]; [11]): 58.2 µM
IC50 (HLA-B*15:01 [8]; [11]): 15.7 µM
IC50 (HLA-A*24:02; [11]): ≥ 72.4 µM
IC50 (HLA-B*07:02): ≥ 134 µM

FQRTFSIPL
IC50 (HLA-A*02:01 [7]; [11]): 3.55 µM
IC50 (HLA-B*08:01; [11]): 5.48 µM
IC50 (HLA-B*15:01 [8]; [11]): 2.2 µM
IC50 (HLA-A*24:02; [11]): 47 µM
IC50 (HLA-B*07:02): 3.92 µM

GCLRIQSLM
IC50 (HLA-A*02:01 [7]; [13]): 9.58 µM
IC50 (HLA-B*08:01; [13]): ≥ 697 µM
IC50 (HLA-B*15:01 [8]; [13]): ≥ 591 µM

LIIDEVHEH
IC50 (HLA-A*02:01 [7]; source organism: Variola virus): ≥ 99.4 µM
IC50 (HLA-A*11:01; source organism: Variola virus): 69.2 µM
IC50 (HLA-B*15:01 [8]; source organism: Variola virus): ≥ 128 µM

YYATSYLEY
IC50 (HLA-B*15:01 [8]; [12]): ≥ 244 µM
IC50 (HLA-A*24:02; [12]): 0.676 µM
IC50 (HLA-A*01:01 [1]; [12]): ≥ 110 µM

QVEQHHRRT
IC50 (HLA-A*02:01 [7]; [11]): ≥ 252 µM
IC50 (HLA-A*11:01; [11]): 0.543 µM
IC50 (HLA-A*03:01 [6]; [11]): 3.08 µM

SMRDQRKGR
IC50 (HLA-A*03:01 [6]; source organism: Variola virus): 6.32 µM

KQKFPYEGG
IC50 (HLA-B*15:01 [8]; [13]): ≥ 233 µM

THKLSLTKL
IC50 (HLA-A*11:01; source organism: Variola virus): 46.2 µM
IC50 (HLA-A*03:01 [6]; source organism: Variola virus): ≥ 149 µM

GQFLSFASL
IC50 (HLA-A*02:01 [7]; [11]): 3.42 µM
IC50 (HLA-B*15:01 [8]; [11]): 1.27 µM
IC50 (HLA-A*24:02; [11]): 19.5 µM
Kd (HLA-B*27:05): 0.151 µM
Kd (HLA-A*29:02): ≥ 20 µM
Kd (HLA-B*15:01 [10]): 0.032 µM
Kd (HLA-A*02:19): ≥ 20 µM
Kd (HLA-B*58:01): ≥ 20 µM
Kd (HLA-A*68:02): ≥ 20 µM
Kd (HLA-A*03:01 [3]): ≥ 20 µM
Kd (HLA-B*27:03): ≥ 20 µM
Kd (HLA-A*26:01): ≥ 20 µM
Kd (HLA-A*69:01): ≥ 20 µM
Kd (HLA-B*51:01 [5]): ≥ 20 µM
Kd (HLA-B*57:01): ≥ 20 µM

YQVNNLEEI
IC50 (HLA-A*02:01 [7]; [11]): 25.6 µM
IC50 (HLA-B*15:01 [8]; [11]): 54.9 µM
IC50 (HLA-A*24:02; [11]): 1.66 µM

RSDGYFLKI
IC50 (HLA-A*02:01 [7]; [14]): 4.94 µM
IC50 (HLA-A*24:02; [14]): 16.4 µM
IC50 (HLA-A*01:01 [1]; [14]): 3.4 µM

STHNTPVYK
IC50 (HLA-A*02:01 [7]; [11]): ≥ 323 µM
IC50 (HLA-A*11:01; [11]): 0.44 µM
IC50 (HLA-A*24:02; [11]): ≥ 134 µM
IC50 (HLA-A*03:01 [6]; [11]): 5.02 µM

TPFGQQRVF
Kd (HLA-B*53:01): 0.264 µM
Kd (HLA-B*35:01): 0.0474 µM
Kd (HLA-B*51:01 [9]; source organism: Dengue virus 1 Singapore/S275/1990): ≥ 20 µM

YTEGLMHNQ
IC50 (HLA-A*01:01 [1]; [12]): ≥ 135 µM
